Assay results published in patent publication US20110171292A1 (RESEARCH FOUNDATION OF STATE UNIVERSITY OF NEW YORK, published 2011).
Positions of bridges follow the written chain, without caps; N, C: chain ends. No end group written: not given here.

Target: thioredoxin reductase
Assay: cell-based or functional assay

IC50 of thioredoxin reductase activity (DTNB reduction, absorbance at 405-414 nM): 36 nM
Binder: GTCVNVGCIPRQIKIWFQNRRMKWKK (disulfide 3-8 (inferred)) [peptide YJB02]
